In the DeepSol protein solubility set:

Experiment: soluble on expression in E. coli; label from the status in PepcDB or PDB records

With “MSFNRISAAEAASLIKHGYNIGLSGFTPAGTAKAVTAELAKIAEAEHAKGNPFQVGIFTGASTGESCDGVMSRAKAIRYRAPYTTNSDFRKAVNNGEIAYNDIHLSQMAQEVRYGFMGKVNVAIIEACEVTPDGKIYLTAAGGISPTICRLADQIIVELNAAHSKSCMGLHDVYEPLDPPYRREIPIYKPSDRIGLPYIQVDPKKIVGVVETNWPDEARSFADADPLTDKIGQNVADFLAADMKRGIIPSTFLPLQSGVGNIANAVLGALGRDKTIPAFEMYTEVIQNSVIGLIREGRIKFGSACSLTVTNDCLEGIYNDMDFFRDKLVLRPSEISNNPEVVRRLGIISINTAIEVDLYGNVNSTHIGGTKMMNGIGGSGDFTRNAYISIFTCPSVAKEGKISAIVPMVSHLDHSEHSVNIIITEQGVADLRGKSPKERAQAIIENCAHPDYKQLLWDYLKLAGGRAQTPHAIQAALGMHAELAKSGDMKNTNWAEYARLEHHHHHH” as the sequence, how does the “soluble on expression in E. coli” value read?
Its value is “not soluble”.

For “VVKLAFPRELRLLTPSQFTFVFQQPQRAGTPQITILGRLNSLGHPRIGLTVAKKNVRRAHERNRIKRLTRESFRLRQHELPAMDFVVVAKKGVADLDNRALSEALEKLWRRHCRLARGS”, which “soluble on expression in E. coli” value is on record?
The value was “soluble”.

With “MKPARLSQTVVAPGCWGELPWGNYYREALEQQLNPWFAKMYGFHLLKIGNLSAEINSEACAVSHQVNVSSQGSPMQVLADPLHLPFADKSVDVCLLAHTLPWCTDPHRLLREADRVLIDDGWLVISGFNPLSLMGLRKLVPVLRKTPPYNSRMFTLMRQLDWLSLLNFEVLHYSRFHVLPWKKQGGRLLNTHIPALGCLQLIVARKRTIPLTLNPLRHNKSKTPIRQTVGATRQYRKPDG” as the sequence, how does the “soluble on expression in E. coli” value read?
The value was “not soluble”.

With “MQNVVGIDFQKSGKMEYYSPKGFDLDVGDWVVVESKRGLEMGRVKYAPLDVADQDVTLPLKEIVRLATEDDLLQYEKNEYDADEAMALCKETIQQHELEMRLVNCEYTLDKSKVIFNFTSDERVDFRKLVKVLAQKLKTRIELRQIGVRDEAKLLGGIGPCGRSLCCSTFLGDFEPVSIKMAKDQNLSLNPTKISGACGRLMCCLKYENDYYEEARAQLPDVGDAIETPEGNGKVIGLNILDISMQVKVEGLEQPLEYKMEELETLNLEHHHHHH” as the sequence, how does the “soluble on expression in E. coli” value read?
Its value is “not soluble”.

For “MSTEKWRTGLQIQQLHTPTDNVDRSAMKKISSMFSALQEKFQRAKAGAPTPAAVAPPAGRESHCGLRFFEYLLVVSLRKRSSGVGYEPQVTYQFPKREVMGRLQREQEEKSMKAAHLFCFPEGVHWAPVTEYSSETFSFVLTEVDGSRRNGYCRRLLPAGKGARLPEAYCIISHVACFGLFSKIFDEVEKRRQISTAMIYPFMQSLREAPLPSPGSTVSISSFIPDAGTQIIRLTRPADSWLEHVDFTALFSRLNDEELLLVFTAAVLERRIIFISEELSTLSQVLHAVAALLYPFVWQHTFISIVPSVLIDVCEAPTPYLLGVQKSMMGLITDHSDVMIVDLSTGAPTKFITRIGDEESLLPLKLKEELLSGLSARTHHASTEQLNRLVSEAFLSVFVKTVGHFSEHIKRGGKPRQFQKKSFLKAVENKTYSSFVKLFIQTQMFDLFIQEEETQSNPNGFFHRKVKEHRDRMKQEKAKAGWVRGVVI”, which “soluble on expression in E. coli” value is on record?
Its value is “soluble”.

For “MQLRSVIAADHPALFALWSRTPGIRLRAEDAYPFFLAYLQRNPGLSLLVETEGEVIACLMAGHDGRRGYLQHLVVDPGYRGLGLARRMLDEVLARLAREGIGKSHVFVLDAAEEAQAFWRAQSDWERRKDIQVFSTREGHA”, which “soluble on expression in E. coli” value is on record?
Its value is “soluble”.

For “MSLVLPSGAFTLKNVTVPAAIFGQRGDLISTDIGIVDGQISAPGGKVIEMAEAMVLPAFVDCHTHLDKGHILPRAQNPDGTFVGALTSVREDHLNWTSKDVRTRADFSIRCAYAHGTRAIRTHVDSMNGQYKRSWPVFAGLREKWANKVELQMTSLITCESYGMPEYAEIAATVAHFDGVLGMVSFPMPDLKKVLLSHFETAGNLGLALDFHTDETMDPSSETLRVIAECVMETGFCGRVLVGHCCSLSQQEENLAMDTLDLVAKAKIDVVSLPMCNLYLQDRHAGRTPRGRGVTLVHEMKARGINVSFASDNTRDPFYAYGDMDMLEVMRMATRIAHLDHSDFDWVKSFSQTPAEVCDFPDLSLAHGTTADLVIFNARNWNELYSRPQSDRIVLRNGIAIDRKLPSYSELDALLEAYKEGHHHHHH”, which “soluble on expression in E. coli” value is on record?
The value was “soluble”.

For “FQGNPCECPRALHRVCGSDGNTYSNPCMLTCAKHEGNPDLVQVHEGPCDEHDHDF”, which “soluble on expression in E. coli” value is on record?
Its value is “soluble”.

For “MDELLKAIKTKIAEMKKIELTGFTNTETATAYFQEKEAILEGIVKTLETITVQETSEVEALKSTVKSLREEIKGQAKSPRELSRRELLYNLGKGIAAAWSGNHKVLADLAFSPNLKSDNWTNPKDVSWGERGWTVSKAALGEPMGNMSPNNEQFLINPIYETEIMSDVAKKSVMMSLVRHRPMLGPSIFLPTRDRGGVQLNWLTAYGQKIEGSKPKGAERVELKAYTLAGFIPWFDEFEEDVFVDLGAMFIDEFIETYGQEFDRQCLLADDDPFTGAMACADVTEVTIKGDTIDDLTWKDFRDAVYKVPAEERKDCSWFLNETVLNHIANIEDTTGRPIWRRPTEAMPGRLDLYPYHEVSILPQIADIGENQAFAVFMNPKRIQHGNRRGIELKKFDGTTESLEYGELFLRFRKRDGFLVPDRKTTWSSLGHN”, which “soluble on expression in E. coli” value is on record?
Its value is “not soluble”.

Which “soluble on expression in E. coli” value does the source give for “MKITTEALRWWEDGETVGGRDLVGGGTWLGCTRHGRLAFLTNFKEASSFPAAKSRGDLPLRYLQSEKSPAEFAEEIQDEISLYNGFNLVVAHVLSKSMIYITNRPPHGDKLVTQVSPGIHVLSNANLDSPWPKVNSPNCVFLSLQCLRLREGFQQLLAENGSGEFPVKTMVEEVMTNTVKDEETELPHVFTPETEYHLSSIFVDMQRPTGRYGTRSISAIIVKSHGDGGGDGEICFYERHLEEGDSWKEHTQQFVIIQNQSI” here?
Its value is “soluble”.

With “MITLYGFGKCFNVMDASPFVVKVDLFMRMANIPCQVKYGAKYLKKSPKGKLPFINDNGTVVADSDAIITYLTKQYQVTLDAELTPEQKAQAHLITKSLDEGLYWCLVYSRWATDECWPLTNEAFFATLPIPLRWFLPNIIRKSVKKNLHGQGVGRHSLEEILAISDKSLASLSTLLADKNFFFGDTHTSFDAVVYSHLCEFISVRFDNGFESKFTKNAKRYQNLVQFCQRIEDKFYPEKLEHHHHHH” as the sequence, how does the “soluble on expression in E. coli” value read?
The value was “soluble”.

Which “soluble on expression in E. coli” value does the source give for “ATQGRLRRRPEGARVPSARRGRPRARWRAPQNNPEVDSIMAELKVEAPASVDWQKRCLTLETQLFRFRLQASKIRELLADKMQELEQRLLEAEQRAENAETQVGVMEEKVKLSNLKNVDSEGSLHRKYQELLKAIKGKDELISQLEAQLEKQKQMRAEEAKTVQEKAAKIKEWVTLKLAKLEMENQHLKSHNQRLVEQVGSLQDALEAIQIAPSRKLLVPPYGAAEQDSVPSEPGIQPMGQDSGSQAQGLKAAVLAPSPGALQSKDSVSEAASPLEDSSSSTVHSGETVEAKPLQPHLGRESPPHQPCMKLLTFRCSSASWGEGLVTAQRGMLPGTKTSAREGGPGSSLTLPKVRAPGTPRDSIQLAKRHHSQPQVGHGHFGRVVNIETEAFSALHPSGLPELESRARSREEPEKMEMEEPPPAGKNEERESPKALGAELEEVELGNKPPTPPLHQFSSWESRIYAVATSGMRLSDMSPRSNTACCASSPPALVSPGSFSGLVYKNVTVPVYTALKGRATQISNMPFMDESSGSDDDCSSQASFRISVPSSESRKTSGLGSPRAIKRGVSMSSLSSEGDYAIPPDACSLDSDYSEPEHKLQRTSSYSTDGLGLGGESLEKSGYLLKMGSQVKTWKRRWFVLRQGQIMYYKSPSDVIRKPQGQVDLNSRCQIVRGEGSQTFQLISEKKTYYLTADSPSLLEEWIRVLQSLLKVQATGPPALLRGGTKPTVKGWLTKVKHGHSKVVWCALVGKIFYYYRSHEDKRPLGCLPVRDAHIEEVDRSCDSDEDYEAGGTRRLLSSHCTLVIHPTEHSPTYLLIGTKHEKDTWLYHLTVAAGGSSAKVGTAYEQLIGKLMDGEGDPDSPLWRHPMLCYSKDGLYASLTTLPSEALQTEALKLFKSCQLFINVPVEAASVDYHVSLAQTALQVCLVHPELQSEIYCQLMKQTSCRPPQKYSLMQCWQLLALCAPLFLPQHHFLWYVKQQLQRHADPRSETGQYATYCQRAVERTLRTGEREARPSRMEVVSILLRNPFHHSLPFSIPVHFTNGTYHVVGFDGSSTVDEFLQRLNQEIGMRKPSHSGFALFTDDPSGRDLEHCLQGSVKICDAISKWEQAMKELHPGKSEGGTRVVKLMYKNRLYFRSQVKGETDRERLLLASQTSREIVAGRFPINKELALEMAALMAQVEYGDLEKPALPGPGGTSPAKAQHLLQQVLDRFHPRRYRHGAPAEQLRHLADMLTTKWATLQGCSPPECIRIYLTVARKWPFFGAKLFAAQPAQLSSKENALVWIAVNEDGVSILDHNTMQVHITYPYSSVTTFGGCRDDFMLVIRSIPDKSSGKSHIEKLIFRMAAPKIAEATFIMASYMNHCTTTVNPPTNPPGACQLWELDGRQFFSSVSCATKGPTLL” here?
Its value is “soluble”.
